Source: the supplement of paper PMC9112550, “Optimization of the antimicrobial peptide Bac7 by deep mutational scanning” (BMC Biology, 2022)

System: Escherichia coli TOP10
Experiment: shrunken log2 fold change of peptide-encoding DNA abundance (4.5 h post-induction vs induction); higher = less antimicrobial activity (less host growth inhibition)
Conditions: time post-induction: 4.5 h; library: site-saturation at positions 5, 18, 19, 20
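Also: peptides expressed intracellularly from a pBAD plasmid library in pooled LB shake-flask culture, induced with 0.3% L-arabinose, DNA abundance read by NGS, three biological replicates, DESeq2 with apeglm shrinkage.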

In order of rising “shrunken log2 fold change” value:
1. RRIRCRPPRLPRPRPRPYNPPRP  -1.15
2. RRIRCRPPRLPRPRPRPYMLPRP  -1.06
3. RRIRCRPPRLPRPRPRPYIIPRP  -0.985
4. RRIRCRPPRLPRPRPRPWYPPRP  -0.742
5. RRIRCRPPRLPRPRPRPYLWPRP  -0.726
6. RRIRDRPPRLPRPRPRPFNTPRP  -0.686
7. RRIRCRPPRLPRPRPRPYTAPRP  -0.595
8. RRIRCRPPRLPRPRPRPYLSPRP  -0.577
9. RRIRCRPPRLPRPRPRPWVSPRP  -0.463
10. RRIRCRPPRLPRPRPRPYEQPRP  -0.435
11. RRIRDRPPRLPRPRPRPFWIPRP  -0.408
12. RRIRCRPPRLPRPRPRPYGPPRP  -0.398
13. RRIRDRPPRLPRPRPRPAYQPRP  -0.381
14. RRIRCRPPRLPRPRPRPYHYPRP  -0.364
15. RRIRCRPPRLPRPRPRPYNSPRP  -0.325
16. RRIRDRPPRLPRPRPRPFDLPRP  -0.312
17. RRIRDRPPRLPRPRPRPFPHPRP  -0.303
18. RRIRDRPPRLPRPRPRPAQVPRP  -0.286
19. RRIRCRPPRLPRPRPRPYKFPRP  -0.279
20. RRIRDRPPRLPRPRPRPFMGPRP  -0.27
21. RRIRCRPPRLPRPRPRPYRYPRP  -0.262
22. RRIRDRPPRLPRPRPRPANKPRP  -0.261
23. RRIRCRPPRLPRPRPRPYFHPRP  -0.233
24. RRIRDRPPRLPRPRPRPCTIPRP  -0.23
25. RRIRDRPPRLPRPRPRPCRTPRP  -0.173
26. RRIRDRPPRLPRPRPRPCFYPRP  -0.167
27. RRIRDRPPRLPRPRPRPCIEPRP  -0.158
28. RRIRCRPPRLPRPRPRPYKGPRP  -0.153
29. RRIRCRPPRLPRPRPRPYEMPRP  -0.151
30. RRIRDRPPRLPRPRPRPDHEPRP  -0.148
31. RRIRDRPPRLPRPRPRPFPYPRP  -0.136
32. RRIRCRPPRLPRPRPRPYQCPRP  -0.133
33. RRIRCRPPRLPRPRPRPYGIPRP  -0.128
34. RRIRCRPPRLPRPRPRPYVQPRP  -0.113
35. RRIRDRPPRLPRPRPRPCFGPRP  -0.112
36. RRIRDRPPRLPRPRPRPFPVPRP  -0.0955
37. RRIRDRPPRLPRPRPRPDKHPRP  -0.0761
38. RRIRDRPPRLPRPRPRPFYVPRP  -0.0754
39. RRIRDRPPRLPRPRPRPDTVPRP  -0.0743
40. RRIRCRPPRLPRPRPRPYEFPRP  -0.0684
41. RRIRCRPPRLPRPRPRPYPEPRP  -0.0664
42. RRIRCRPPRLPRPRPRPYHVPRP  -0.0591
43. RRIRDRPPRLPRPRPRPALNPRP  -0.0576
44. RRIRDRPPRLPRPRPRPCQVPRP  -0.0566
45. RRIRDRPPRLPRPRPRPFIFPRP  -0.0526
46. RRIRDRPPRLPRPRPRPAVDPRP  -0.0491
47. RRIRCRPPRLPRPRPRPWWMPRP  -0.0465
48. RRIRDRPPRLPRPRPRPDSAPRP  -0.0433
49. RRIRDRPPRLPRPRPRPEGTPRP  -0.042
50. RRIRDRPPRLPRPRPRPAERPRP  -0.0412
51. RRIRDRPPRLPRPRPRPDPSPRP  -0.0385
52. RRIRDRPPRLPRPRPRPCSVPRP  -0.0368
53. RRIRDRPPRLPRPRPRPCSGPRP  -0.0282
54. RRIRDRPPRLPRPRPRPFGEPRP  -0.0214
55. RRIRDRPPRLPRPRPRPDNEPRP  -0.0213
56. RRIRDRPPRLPRPRPRPCFQPRP  -0.0196
57. RRIRDRPPRLPRPRPRPEWKPRP  -0.0135
58. RRIRDRPPRLPRPRPRPDHVPRP  -0.012
59. RRIRCRPPRLPRPRPRPWWLPRP  -0.0111
60. RRIRDRPPRLPRPRPRPETEPRP  -0.0111
61. RRIRDRPPRLPRPRPRPEVYPRP  -0.00999
62. RRIRDRPPRLPRPRPRPCKQPRP  -0.00787
63. RRIRDRPPRLPRPRPRPFHYPRP  -0.00232
64. RRIRDRPPRLPRPRPRPDPFPRP  -0.00228
65. RRIRDRPPRLPRPRPRPEAHPRP  -0.00146
66. RRIRDRPPRLPRPRPRPCTSPRP  -0.000687
67. RRIRDRPPRLPRPRPRPDYKPRP  0.00454
68. RRIRDRPPRLPRPRPRPFEKPRP  0.00649
69. RRIRDRPPRLPRPRPRPDPYPRP  0.00859
70. RRIRDRPPRLPRPRPRPGHYPRP  0.0149
71. RRIRDRPPRLPRPRPRPAEGPRP  0.015
72. RRIRDRPPRLPRPRPRPCKFPRP  0.0155
73. RRIRDRPPRLPRPRPRPFQIPRP  0.0155
74. RRIRCRPPRLPRPRPRPYGTPRP  0.016
75. RRIRDRPPRLPRPRPRPDVLPRP  0.0169
76. RRIRDRPPRLPRPRPRPGINPRP  0.0194
77. RRIRDRPPRLPRPRPRPCQFPRP  0.0215
78. RRIRDRPPRLPRPRPRPFPTPRP  0.0231
79. RRIRDRPPRLPRPRPRPAEWPRP  0.0244
80. RRIRDRPPRLPRPRPRPCIMPRP  0.0282
81. RRIRDRPPRLPRPRPRPEKYPRP  0.0312
82. RRIRDRPPRLPRPRPRPFMFPRP  0.033
83. RRIRDRPPRLPRPRPRPEVNPRP  0.0354
84. RRIRDRPPRLPRPRPRPDMRPRP  0.0382
85. RRIRDRPPRLPRPRPRPEEWPRP  0.0446
86. RRIRDRPPRLPRPRPRPAASPRP  0.049
87. RRIRDRPPRLPRPRPRPDRTPRP  0.0519
88. RRIRDRPPRLPRPRPRPEIDPRP  0.0535
89. RRIRDRPPRLPRPRPRPEYWPRP  0.0559
90. RRIRDRPPRLPRPRPRPCGYPRP  0.0572
91. RRIRDRPPRLPRPRPRPCAHPRP  0.07
92. RRIRDRPPRLPRPRPRPDYQPRP  0.0708
93. RRIRDRPPRLPRPRPRPDWMPRP  0.0771
94. RRIRDRPPRLPRPRPRPATIPRP  0.0807
95. RRIRDRPPRLPRPRPRPFQNPRP  0.0838
96. RRIRCRPPRLPRPRPRPYDIPRP  0.0852
97. RRIRDRPPRLPRPRPRPALSPRP  0.0869
98. RRIRDRPPRLPRPRPRPFLLPRP  0.0901
99. RRIRDRPPRLPRPRPRPATNPRP  0.0922
100. RRIRDRPPRLPRPRPRPEMIPRP  0.0934
101. RRIRDRPPRLPRPRPRPFFSPRP  0.115
102. RRIRDRPPRLPRPRPRPCMYPRP  0.126
103. RRIRDRPPRLPRPRPRPAYFPRP  0.128
104. RRIRDRPPRLPRPRPRPEMNPRP  0.128
105. RRIRDRPPRLPRPRPRPAVGPRP  0.148
106. RRIRDRPPRLPRPRPRPAQRPRP  0.152
107. RRIRDRPPRLPRPRPRPELTPRP  0.167
108. RRIRDRPPRLPRPRPRPDLKPRP  0.169
109. RRIRDRPPRLPRPRPRPAAYPRP  0.174
110. RRIRDRPPRLPRPRPRPDCTPRP  0.185
111. RRIRDRPPRLPRPRPRPDWIPRP  0.189
112. RRIRDRPPRLPRPRPRPGALPRP  0.191
113. RRIRDRPPRLPRPRPRPGCMPRP  0.206
114. RRIRDRPPRLPRPRPRPARQPRP  0.212
115. RRIRDRPPRLPRPRPRPEHVPRP  0.212
116. RRIRDRPPRLPRPRPRPCLWPRP  0.218
117. RRIRDRPPRLPRPRPRPFFEPRP  0.219
118. RRIRDRPPRLPRPRPRPDIIPRP  0.221
119. RRIRDRPPRLPRPRPRPGFRPRP  0.248
120. RRIRDRPPRLPRPRPRPDCYPRP  0.269
121. RRIRDRPPRLPRPRPRPFATPRP  0.271
122. RRIRDRPPRLPRPRPRPATSPRP  0.303
123. RRIRDRPPRLPRPRPRPDDTPRP  0.336
124. RRIRDRPPRLPRPRPRPEASPRP  0.447
125. RRIRDRPPRLPRPRPRPAPVPRP  0.49
126. RRIRDRPPRLPRPRPRPCCYPRP  0.503
127. RRIRDRPPRLPRPRPRPAIRPRP  0.53
128. RRIRDRPPRLPRPRPRPAAFPRP  0.549
129. RRIRDRPPRLPRPRPRPFFCPRP  0.55
130. RRIRDRPPRLPRPRPRPDCSPRP  0.573
131. RRIRDRPPRLPRPRPRPAGRPRP  0.632
132. RRIRDRPPRLPRPRPRPEINPRP  0.648
133. RRIRDRPPRLPRPRPRPCSWPRP  0.654
134. RRIRDRPPRLPRPRPRPDGAPRP  0.657
135. RRIRDRPPRLPRPRPRPERLPRP  0.659
136. RRIRDRPPRLPRPRPRPALQPRP  0.671
137. RRIRDRPPRLPRPRPRPAQDPRP  0.684
138. RRIRDRPPRLPRPRPRPAADPRP  0.701
139. RRIRDRPPRLPRPRPRPETHPRP  0.739
140. RRIRDRPPRLPRPRPRPARWPRP  0.824
141. RRIRDRPPRLPRPRPRPAVEPRP  0.845
142. RRIRDRPPRLPRPRPRPGARPRP  0.863
143. RRIRDRPPRLPRPRPRPGATPRP  1.01
144. RRIRDRPPRLPRPRPRPALDPRP  1.05
145. RRIRDRPPRLPRPRPRPALWPRP  1.05
146. RRIRDRPPRLPRPRPRPAPRPRP  1.07
147. RRIRDRPPRLPRPRPRPEFCPRP  1.14
148. RRIRDRPPRLPRPRPRPFFGPRP  1.19
149. RRIRDRPPRLPRPRPRPEGAPRP  1.78
150. RRIRDRPPRLPRPRPRPEVRPRP  1.91
